Sequences and labels used below:
B1: Zinc finger MYM-type protein 3, residues 589 to 668; numbered along this chain, Q14202 (parent)
chain: LSCHYCHSLFSGKPEVLDWQDQVFQFCCRDCCEDFKRLRGVVSQCEHCRQEKLLHEKLRFSGVEKSFCSEGCVLLYKQDF

The source of these data is the Human Domainome abundance scans (Beltran et al. 2025).

± gives the uncertainty stated by the source.

In this series the parent is B1. The series can be described thus: abundance fitness (aPCA) (normalised: wild type 0, dead -1); higher = more abundant; growth selection in yeast, the domain comes from the species named. Particulars: Homo sapiens.
Regarding LSCHYCHSLFSGKPEVLNWQDQVFQFCCRDCCEDFKRLRGVVSQCEHCRQEKLLHEKLRFSGVEKSFCSEGCVLLYKQDF [D18N], the abundance fitness was 0.138 ± 0.095.

As to LSCHYCHSLFSGKPEVLPWQDQVFQFCCRDCCEDFKRLRGVVSQCEHCRQEKLLHEKLRFSGVEKSFCSEGCVLLYKQDF [D18P], the abundance fitness turned out to be 0.236 ± 0.047.

On to LSCHYCHSLFSGKPEVLDWQDQVFQFCCRDCCEDFKRLRGVVSQCEHCRQEKLLHEKLRFSGVVKSFCSEGCVLLYKQDF [E64V], for which the abundance fitness is -0.359 ± 0.3. For LSCHYCHSLFSGKPEVLDWQDQVFQFCCRDCCEDFKRLRGVVSQCEHCRMEKLLHEKLRFSGVEKSFCSEGCVLLYKQDF [Q50M] the value was 0.172 ± 0.5; for LSCHYCHSLFSGKPEVLDWQDQVFQFCCRKCCEDFKRLRGVVSQCEHCRQEKLLHEKLRFSGVEKSFCSEGCVLLYKQDF [D30K], 0.104 ± 0.062; for LSCHYCHSLFSGKPEVLDWQDQVFQFCCRDCCEDFKRLRGVVSQCEHCRQEKLLHEKLRFSGVEKSFCSETCVLLYKQDF [G71T], 0.414 ± 0.11. LSCHYCHSLFSGKPEVLDWQDQVFQFCCRDCCEDFKRLRGVVSQCEHCRQEKLLHEKLRFSGVEKSFCSECCVLLYKQDF [G71C]: the abundance fitness is -0.535 ± 0.21. Turning to LSCHYCHSLFSGKPEVLDWQDQVFQFCTRDCCEDFKRLRGVVSQCEHCRQEKLLHEKLRFSGVEKSFCSEGCVLLYKQDF [C28T], the abundance fitness stood at 0.11 ± 0.047. The value for LSCHYCHSLFSGKPEVLDWQDQVFQFCHRDCCEDFKRLRGVVSQCEHCRQEKLLHEKLRFSGVEKSFCSEGCVLLYKQDF [C28H] was -0.081 ± 0.11; that for LSCHYCHSLFSGKPEVLDWQDQVFQFCRRDCCEDFKRLRGVVSQCEHCRQEKLLHEKLRFSGVEKSFCSEGCVLLYKQDF [C28R] was 0.074 ± 0.039. Turning to LSCHYCHSLTSGKPEVLDWQDQVFQFCCRDCCEDFKRLRGVVSQCEHCRQEKLLHEKLRFSGVEKSFCSEGCVLLYKQDF [F10T], the abundance fitness was -0.16 ± 0.049. For LSCHYCHSLKSGKPEVLDWQDQVFQFCCRDCCEDFKRLRGVVSQCEHCRQEKLLHEKLRFSGVEKSFCSEGCVLLYKQDF [F10K] the value was -0.535 ± 0.085; for LSCHYCHSLFSGKCEVLDWQDQVFQFCCRDCCEDFKRLRGVVSQCEHCRQEKLLHEKLRFSGVEKSFCSEGCVLLYKQDF [P14C], -0.6 ± 0.13. With LSCHYCHSLFSGKIEVLDWQDQVFQFCCRDCCEDFKRLRGVVSQCEHCRQEKLLHEKLRFSGVEKSFCSEGCVLLYKQDF [P14I], the abundance fitness was -0.264 ± 0.097. With LSCHHCHSLFSGKPEVLDWQDQVFQFCCRDCCEDFKRLRGVVSQCEHCRQEKLLHEKLRFSGVEKSFCSEGCVLLYKQDF [Y5H], the abundance fitness was -0.066 ± 0.055. Turning to LSCHYCHSLFSGKPEVLDWQDQVFQFCCRDCCEDFKRLRGVVSQCEHCRQEKLLHEKLRQSGVEKSFCSEGCVLLYKQDF [F60Q], the abundance fitness was -0.069 ± 0.13. Take LSCHYCHSLFSGKPEVLDWQDQVFQFCCRDCCEDFKRLRGTVSQCEHCRQEKLLHEKLRFSGVEKSFCSEGCVLLYKQDF [V41T]: the abundance fitness was -0.243 ± 0.41. In the case of LSCHYCHSLFSGKPEVLDWQDQVFQFCCRDCCEDFKRLRGVVSQCEHCRQEKLLHEKLRFSGVEKSFCSEGSVLLYKQDF [C72S], the abundance fitness is -0.935 ± 0.29. Regarding LSCHYCHSLFSGKPEVLDWQDQVFQFCCRDCCEDNKRLRGVVSQCEHCRQEKLLHEKLRFSGVEKSFCSEGCVLLYKQDF [F35N], the abundance fitness was -0.924 ± 0.39. In the case of LSCHYCHSLFSGKPEVLDWQDQVFQFCCRDCCEDRKRLRGVVSQCEHCRQEKLLHEKLRFSGVEKSFCSEGCVLLYKQDF [F35R], the abundance fitness was -0.726 ± 0.052.

LSCHYCHSLFSGKPEVLDWQDQVFQFCCRDCCEDFKRLRGVVSQCEHCRQEKLLHEKLRFSMVEKSFCSEGCVLLYKQDF [G62M]: the abundance fitness was -0.3 ± 0.32. For the variant LSCHYCHSLFSGKPEVLDWQDQVFQFCCRDCCEDFKVLRGVVSQCEHCRQEKLLHEKLRFSGVEKSFCSEGCVLLYKQDF [R37V], the abundance fitness was 0.097 ± 0.1.

For the variant LSCHYCHSLFSGKPEVLDWQDQVFQFCCRDCCEDFKRLRGVVSQCEHCRQEWLLHEKLRFSGVEKSFCSEGCVLLYKQDF [K52W], the abundance fitness was -0.699 ± 0.18. For the variant LSCHYCHSLFSGKPEVLDWQDQVFQFCCRDCCEDFKRLRGVVSQCEHCRQEVLLHEKLRFSGVEKSFCSEGCVLLYKQDF [K52V], the abundance fitness is -0.478 ± 0.22. Regarding LSCHYCHSLFSGKPEVLDWQDQVFQFCCRDCCEDFKRLRGVVSQCEHCRQEKLLHEKLDFSGVEKSFCSEGCVLLYKQDF [R59D], the abundance fitness stood at 0.257 ± 0.11. In the case of LSCHYCHSLFSGKPEVLDWQDQVFQFCCRDCCEDFKRLRGVVSQCEHCRQEKLLHEKLEFSGVEKSFCSEGCVLLYKQDF [R59E], the abundance fitness was 0.386 ± 0.075. As for LSCHYCHSLFSGKPEVLDWQDQVFQFCCRDCCEDFKRLRGVVSQCEHCRQEKLLHEKLRFSGVEKSFCSEGCQLLYKQDF [V73Q], the abundance fitness is -0.309 ± 0.2.

As to LSCHYCHSLFSGKPEVLDWQDQVFQFCCRDCCEDFKRLRGVVSQCEHCVQEKLLHEKLRFSGVEKSFCSEGCVLLYKQDF [R49V], the abundance fitness is -0.785 ± 0.19.

Turning to LSCHYCHSLFSGKPEVLDWQDQVWQFCCRDCCEDFKRLRGVVSQCEHCRQEKLLHEKLRFSGVEKSFCSEGCVLLYKQDF [F24W], the abundance fitness was 0.051 ± 0.045.

In the case of LSCHYCHSLFSGKPEVLDWEDQVFQFCCRDCCEDFKRLRGVVSQCEHCRQEKLLHEKLRFSGVEKSFCSEGCVLLYKQDF [Q20E], the abundance fitness was 0.492 ± 0.05. For LSCHYCHSLFSGKPEVLDWHDQVFQFCCRDCCEDFKRLRGVVSQCEHCRQEKLLHEKLRFSGVEKSFCSEGCVLLYKQDF [Q20H] the value was -0.021 ± 0.15. The value for LSCHYCHSLFSGKPEVLDWQDQVFQFCCRDCCEDFKRLRGVVSQCEHCRQEKWLHEKLRFSGVEKSFCSEGCVLLYKQDF [L53W] was -0.676 ± 0.14; that for LSCHYCHSLFSGKPEVLDFQDQVFQFCCRDCCEDFKRLRGVVSQCEHCRQEKLLHEKLRFSGVEKSFCSEGCVLLYKQDF [W19F] was 0.364 ± 0.059; that for LSCHYCHSLFSGKPEVLDWQDQVFQFCCRDCCEDFKRLRGVVSQCEHCRQWKLLHEKLRFSGVEKSFCSEGCVLLYKQDF [E51W] was 0.537 ± 0.098.

With LSCHYCHSLFSGKPEVKDWQDQVFQFCCRDCCEDFKRLRGVVSQCEHCRQEKLLHEKLRFSGVEKSFCSEGCVLLYKQDF [L17K], the abundance fitness was -0.359 ± 0.076.
